{
  "source": "the RNAGym collection of RNA variant scans (doi:10.7554/elife.90254)",
  "parents": {"B1": {"name": "OR4K15 (parent)", "chain": "GUUAACGGUCAUAGGCCAUGGAAACUAGGAGCACCAUUUCGCUGCCAGUGAAGAAAUGAACAAAGAAAAUCUGGGCCAGGCAGGCAUCAAAAGAAAUAGUCUUGCGCUCAACCAGAAAGUCUGUAAUCAUUUUAAGGGUA"}},
  "data": [
    {"variants_of": "B1", "experiment": "self-cleavage, relative activity (ratio to wild type); higher = more cleavage; in vitro, sequencing; the parent is a self-cleaving ribozyme", "values": [
      {"variant": "A24G A118G", "self-cleavage": 1.01},
      {"variant": "U26A U122C", "self-cleavage": 0.72},
      {"variant": "U2C G138A", "self-cleavage": 1.1},
      {"variant": "A86G A110U", "self-cleavage": 1.06},
      {"variant": "C107U U108C", "self-cleavage": 0.02},
      {"variant": "A22G A82G", "self-cleavage": 0.68},
      {"variant": "U9C U38A", "self-cleavage": 1.98},
      {"variant": "A23U A33G", "self-cleavage": 1.06},
      {"variant": "G7U U130C", "self-cleavage": 1.45},
      {"variant": "U38C A62U", "self-cleavage": 1.06},
      {"variant": "A64G U132A", "self-cleavage": 1.85},
      {"variant": "A68G A92C", "self-cleavage": 1.7},
      {"variant": "U9C U39A", "self-cleavage": 1.33},
      {"variant": "A55G G123A", "self-cleavage": 1.61},
      {"variant": "A33U", "self-cleavage": 1.4},
      {"variant": "A56G U124A", "self-cleavage": 0.78},
      {"variant": "A33G A55G", "self-cleavage": 0.85},
      {"variant": "A11U U108A", "self-cleavage": 0.02},
      {"variant": "C34U A91G", "self-cleavage": 1.1},
      {"variant": "A60U A98G", "self-cleavage": 0.39},
      {"variant": "A27G G123U", "self-cleavage": 1.67},
      {"variant": "A23G A36U", "self-cleavage": 1.74},
      {"variant": "G75U U87C", "self-cleavage": 0.11},
      {"variant": "A18U A64G", "self-cleavage": 0.9},
      {"variant": "G1A A134G", "self-cleavage": 1.75},
      {"variant": "A54G U108A", "self-cleavage": 0.02},
      {"variant": "U3A U131C", "self-cleavage": 0.64},
      {"variant": "A18G A59U", "self-cleavage": 1.65},
      {"variant": "C113U U122C", "self-cleavage": 0.08},
      {"variant": "U9A U120A", "self-cleavage": 1.36},
      {"variant": "G75U A90U", "self-cleavage": 0.12},
      {"variant": "A89G U139G", "self-cleavage": 1.4},
      {"variant": "A18U C42U", "self-cleavage": 1.18},
      {"variant": "U97C U130A", "self-cleavage": 0.78},
      {"variant": "A47U A89G", "self-cleavage": 0.86},
      {"variant": "A30G G74C", "self-cleavage": 0.34},
      {"variant": "A56G G75C", "self-cleavage": 0.19},
      {"variant": "A54C U122C", "self-cleavage": 0.42},
      {"variant": "U39A U130C", "self-cleavage": 1.09},
      {"variant": "A30G A118G", "self-cleavage": 1.2},
      {"variant": "A5C U57C", "self-cleavage": 0.75},
      {"variant": "A18U A68U", "self-cleavage": 2.28},
      {"variant": "U2G U38A", "self-cleavage": 1.08},
      {"variant": "U37C U87C", "self-cleavage": 0.99},
      {"variant": "U100C U139A", "self-cleavage": 2.28},
      {"variant": "A55G C113U", "self-cleavage": 0.03},
      {"variant": "A24C U131C", "self-cleavage": 1.82},
      {"variant": "A30U A66G", "self-cleavage": 1.68},
      {"variant": "G8A U108A", "self-cleavage": 0.05},
      {"variant": "A24G A47U", "self-cleavage": 0.96},
      {"variant": "A5G U49A", "self-cleavage": 0.9},
      {"variant": "A59U A117C", "self-cleavage": 0.63},
      {"variant": "A78U A129G", "self-cleavage": 0.18},
      {"variant": "U43C A68U", "self-cleavage": 1.74},
      {"variant": "A56G A68U", "self-cleavage": 1.86},
      {"variant": "A55G A91U", "self-cleavage": 2.07},
      {"variant": "A51C A82G", "self-cleavage": 0.67},
      {"variant": "A114U U122A", "self-cleavage": 0.04},
      {"variant": "A63G A111U", "self-cleavage": 0.18},
      {"variant": "A78U A91G", "self-cleavage": 0.11},
      {"variant": "A111U A134G", "self-cleavage": 0.03},
      {"variant": "A36U A114U", "self-cleavage": 0.14},
      {"variant": "A33G A134G", "self-cleavage": 0.52},
      {"variant": "C76U U102C", "self-cleavage": 0.1},
      {"variant": "U43C U72C", "self-cleavage": 0.07},
      {"variant": "C17U U124A", "self-cleavage": 1.1},
      {"variant": "A78U A86G", "self-cleavage": 0.11},
      {"variant": "A94G A116G", "self-cleavage": 0.39},
      {"variant": "G44A U132A", "self-cleavage": 1.35},
      {"variant": "A63G U124A", "self-cleavage": 0.72},
      {"variant": "A27U G44U", "self-cleavage": 2.13},
      {"variant": "A62C A140U", "self-cleavage": 1.7},
      {"variant": "A5G A69G", "self-cleavage": 1.54},
      {"variant": "A47U A66G", "self-cleavage": 0.99},
      {"variant": "A30G A69U", "self-cleavage": 1.18},
      {"variant": "U12C U87C", "self-cleavage": 0.75},
      {"variant": "U3C U39G", "self-cleavage": 1.72},
      {"variant": "U39C A82U", "self-cleavage": 0.22},
      {"variant": "A116G A140G", "self-cleavage": 0.97},
      {"variant": "A59G A69U", "self-cleavage": 1.7},
      {"variant": "A67G C128U", "self-cleavage": 0.62},
      {"variant": "A30C U130C", "self-cleavage": 1.21},
      {"variant": "A90G A126G", "self-cleavage": 0.95},
      {"variant": "U72G A90G", "self-cleavage": 0.39},
      {"variant": "C32U C105U", "self-cleavage": 0.18},
      {"variant": "A78U U120C", "self-cleavage": 0.12},
      {"variant": "U37A A91G", "self-cleavage": 0.78},
      {"variant": "A89U U120C", "self-cleavage": 0.5},
      {"variant": "A33G A36G", "self-cleavage": 1.15},
      {"variant": "A89C U132A", "self-cleavage": 1.97},
      {"variant": "G44A A125C", "self-cleavage": 1.48},
      {"variant": "A66G A82G", "self-cleavage": 0.26},
      {"variant": "A52U A54U", "self-cleavage": 1.62},
      {"variant": "C107U A134G", "self-cleavage": 0.03},
      {"variant": "A110G U122A", "self-cleavage": 0.11},
      {"variant": "U26A U37C", "self-cleavage": 0.43},
      {"variant": "A125G G137U", "self-cleavage": 0.98},
      {"variant": "A33U G74C", "self-cleavage": 0.05},
      {"variant": "A116G U130C", "self-cleavage": 0.25},
      {"variant": "U3C U120A", "self-cleavage": 1.72},
      {"variant": "G8A A47C", "self-cleavage": 1.67},
      {"variant": "U2A U3A", "self-cleavage": 1.16},
      {"variant": "U12C U130A", "self-cleavage": 1.45},
      {"variant": "U19C C32G", "self-cleavage": 1.51},
      {"variant": "A60G U103G", "self-cleavage": 0.05},
      {"variant": "G41U A51G", "self-cleavage": 1.69},
      {"variant": "A36G A125G", "self-cleavage": 0.6},
      {"variant": "U57C A95G", "self-cleavage": 1.76},
      {"variant": "U72G A135C", "self-cleavage": 0.33},
      {"variant": "U3C U37C", "self-cleavage": 1.05},
      {"variant": "U49A A118G", "self-cleavage": 1.31},
      {"variant": "U2C G7A", "self-cleavage": 1.22},
      {"variant": "C34U A59U", "self-cleavage": 0.75},
      {"variant": "G14U A52U", "self-cleavage": 1.71},
      {"variant": "U39C A78G", "self-cleavage": 0.26},
      {"variant": "A59G U122A", "self-cleavage": 1.38},
      {"variant": "U19C A63G", "self-cleavage": 0.89},
      {"variant": "A11G A23G", "self-cleavage": 1.1},
      {"variant": "A47U G138A", "self-cleavage": 1.61},
      {"variant": "A24G A89G", "self-cleavage": 0.78},
      {"variant": "G79A A86U", "self-cleavage": 0.09},
      {"variant": "A18U A33G", "self-cleavage": 0.61},
      {"variant": "U3C A24G", "self-cleavage": 0.9},
      {"variant": "A18U U87A", "self-cleavage": 1.04},
      {"variant": "C6A A55G", "self-cleavage": 1.13},
      {"variant": "A22G A55U", "self-cleavage": 1.26},
      {"variant": "G137A", "self-cleavage": 1.12},
      {"variant": "A18U A51G", "self-cleavage": 1.4},
      {"variant": "U49C U103C", "self-cleavage": 1.01},
      {"variant": "U2A A78G", "self-cleavage": 0.46},
      {"variant": "U12A C109U", "self-cleavage": 0.24},
      {"variant": "C61U G115A", "self-cleavage": 0.08},
      {"variant": "G31A A91U", "self-cleavage": 1.99},
      {"variant": "U72A U122C", "self-cleavage": 0.12},
      {"variant": "A55G A92G", "self-cleavage": 0.67},
      {"variant": "U3C A114U", "self-cleavage": 0.04},
      {"variant": "A60G U72A", "self-cleavage": 0.17},
      {"variant": "A47C A51G", "self-cleavage": 1.5},
      {"variant": "G28U A118G", "self-cleavage": 0.84},
      {"variant": "A51G A69U", "self-cleavage": 1.41},
      {"variant": "U37C A135U", "self-cleavage": 2.17},
      {"variant": "U2A A135U", "self-cleavage": 0.96},
      {"variant": "A66G U122A", "self-cleavage": 1.63},
      {"variant": "A30G G104A", "self-cleavage": 0.08},
      {"variant": "U49A U120C", "self-cleavage": 0.84},
      {"variant": "U43C A62C", "self-cleavage": 1.57},
      {"variant": "C101U U120A", "self-cleavage": 0.4},
      {"variant": "A78U A125G", "self-cleavage": 0.03},
      {"variant": "A96G C121U", "self-cleavage": 2.57},
      {"variant": "C40G", "self-cleavage": 1.62},
      {"variant": "A78U C88U", "self-cleavage": 0.42},
      {"variant": "U2C A22U", "self-cleavage": 1.51},
      {"variant": "A18U A118G", "self-cleavage": 0.6},
      {"variant": "U19C A116G", "self-cleavage": 0.11},
      {"variant": "U37C A117U", "self-cleavage": 1.11},
      {"variant": "U19G A86U", "self-cleavage": 0.68},
      {"variant": "A59U A86U", "self-cleavage": 1.92},
      {"variant": "A30G U108C", "self-cleavage": 0.02},
      {"variant": "A51U U57C", "self-cleavage": 1.58},
      {"variant": "A67G U103A", "self-cleavage": 0.89},
      {"variant": "U39C U127A", "self-cleavage": 2.26},
      {"variant": "A114C A126G", "self-cleavage": 0.02},
      {"variant": "A54G C105U", "self-cleavage": 0.36},
      {"variant": "A5C A66U", "self-cleavage": 0.83},
      {"variant": "A47G U103C", "self-cleavage": 0.34},
      {"variant": "A55G U120A", "self-cleavage": 1.67},
      {"variant": "A24G A86G", "self-cleavage": 1.19}
    ]}
  ]
}
